Drawing on paper doi:10.1101/2021.09.23.461563, this text covers Kd for four substances.

Assay [1] concerns the target GST-ErpB (Borrelia burgdorferi strain B31). In words: SPR.
For assay [2], the target named is GST-ErpQ (Borrelia burgdorferi strain B31). In words: SPR. A general note: SPR reads the build-up and loss of mass on a sensor chip optically.
Assay [3] has as its target C1r enzyme (activated form of human C1r) (human) (UniProt P00736). The assay can be described thus: ELISA. Background: An ELISA detects its analyte on a solid surface through an enzyme-linked reagent.
For assay [4], the target named is human C1 complex (C1qC1r2C1s2) (human) (UniProt P02745). In words: ELISA.
For assay [5], the target named is C1s enzyme (activated form of human C1s) (human) (UniProt P09871). The assay can be described thus: ELISA.
C1s enzyme (activated form of human C1s) (human), sequence (P09871 16-437, chain 1 of 2): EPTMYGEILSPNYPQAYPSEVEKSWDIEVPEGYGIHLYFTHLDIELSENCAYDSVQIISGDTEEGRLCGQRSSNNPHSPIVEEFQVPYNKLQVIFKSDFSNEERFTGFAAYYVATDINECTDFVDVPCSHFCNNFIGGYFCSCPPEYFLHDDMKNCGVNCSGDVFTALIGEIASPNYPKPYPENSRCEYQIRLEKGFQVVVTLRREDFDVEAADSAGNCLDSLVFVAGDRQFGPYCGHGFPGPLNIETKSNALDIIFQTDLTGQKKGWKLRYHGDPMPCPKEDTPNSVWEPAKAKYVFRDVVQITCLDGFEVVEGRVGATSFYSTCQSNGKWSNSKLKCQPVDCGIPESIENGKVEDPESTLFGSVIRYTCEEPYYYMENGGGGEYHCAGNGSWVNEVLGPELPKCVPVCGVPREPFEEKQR
C1s enzyme (activated form of human C1s) (human), sequence (P09871 438-688, chain 2 of 2): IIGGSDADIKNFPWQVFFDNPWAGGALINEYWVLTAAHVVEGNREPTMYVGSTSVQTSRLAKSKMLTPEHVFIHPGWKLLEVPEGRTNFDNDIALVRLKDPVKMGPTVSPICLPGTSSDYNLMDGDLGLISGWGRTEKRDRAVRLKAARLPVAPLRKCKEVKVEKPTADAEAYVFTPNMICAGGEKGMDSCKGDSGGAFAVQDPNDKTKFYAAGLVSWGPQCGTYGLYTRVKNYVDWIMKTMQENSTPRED

C1r enzyme (activated form of human C1r) (human), sequence (P00736 18-463, chain 1 of 2): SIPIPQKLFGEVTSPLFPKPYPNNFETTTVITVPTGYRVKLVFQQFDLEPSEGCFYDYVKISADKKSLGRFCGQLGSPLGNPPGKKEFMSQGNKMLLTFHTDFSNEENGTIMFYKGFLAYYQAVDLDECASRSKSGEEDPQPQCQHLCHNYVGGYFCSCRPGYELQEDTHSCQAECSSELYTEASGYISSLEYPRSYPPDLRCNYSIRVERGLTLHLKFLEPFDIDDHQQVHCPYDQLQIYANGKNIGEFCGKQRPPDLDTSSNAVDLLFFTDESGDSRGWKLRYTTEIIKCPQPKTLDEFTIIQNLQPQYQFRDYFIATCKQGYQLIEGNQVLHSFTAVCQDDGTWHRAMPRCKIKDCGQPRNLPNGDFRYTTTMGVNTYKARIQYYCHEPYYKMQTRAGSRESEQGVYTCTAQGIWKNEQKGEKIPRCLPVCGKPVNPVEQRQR
C1r enzyme (activated form of human C1r) (human), sequence (P00736 464-705, chain 2 of 2): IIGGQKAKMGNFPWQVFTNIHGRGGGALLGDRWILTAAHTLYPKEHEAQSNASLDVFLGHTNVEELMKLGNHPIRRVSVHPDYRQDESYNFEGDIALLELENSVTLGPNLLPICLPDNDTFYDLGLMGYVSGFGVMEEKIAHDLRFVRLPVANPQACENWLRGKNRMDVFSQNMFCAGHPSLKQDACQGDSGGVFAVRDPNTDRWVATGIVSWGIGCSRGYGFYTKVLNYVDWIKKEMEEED
human C1 complex (C1qC1r2C1s2) (human), sequence (P02745 whole entry, looked up, one chain of several): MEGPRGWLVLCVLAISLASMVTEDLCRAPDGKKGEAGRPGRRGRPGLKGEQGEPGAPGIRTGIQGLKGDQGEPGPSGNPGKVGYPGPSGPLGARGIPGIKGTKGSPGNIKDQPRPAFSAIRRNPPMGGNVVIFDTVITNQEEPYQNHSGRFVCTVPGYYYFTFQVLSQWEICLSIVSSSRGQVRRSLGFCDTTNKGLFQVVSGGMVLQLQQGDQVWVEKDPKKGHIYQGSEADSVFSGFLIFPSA
human C1 complex (C1qC1r2C1s2), sequence (P02746 whole entry, looked up): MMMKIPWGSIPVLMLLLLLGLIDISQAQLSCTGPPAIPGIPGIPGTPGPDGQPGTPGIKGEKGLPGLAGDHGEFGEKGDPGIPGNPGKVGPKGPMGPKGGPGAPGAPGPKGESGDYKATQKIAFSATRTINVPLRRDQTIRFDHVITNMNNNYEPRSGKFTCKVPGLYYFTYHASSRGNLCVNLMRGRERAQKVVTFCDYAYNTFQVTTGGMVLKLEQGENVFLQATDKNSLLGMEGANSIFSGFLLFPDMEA
human C1 complex (C1qC1r2C1s2), sequence (P02747 whole entry, looked up): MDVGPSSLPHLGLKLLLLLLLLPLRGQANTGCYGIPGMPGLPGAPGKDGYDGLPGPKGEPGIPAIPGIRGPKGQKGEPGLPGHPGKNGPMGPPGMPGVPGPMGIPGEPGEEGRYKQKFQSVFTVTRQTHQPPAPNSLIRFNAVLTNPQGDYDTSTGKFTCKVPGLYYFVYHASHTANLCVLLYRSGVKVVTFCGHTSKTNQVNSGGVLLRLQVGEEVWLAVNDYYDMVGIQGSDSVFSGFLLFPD
human C1 complex (C1qC1r2C1s2), sequence (P02745 whole entry, looked up): as the sequence (P02745 whole entry, looked up, one chain of several) above

A word on the Kd: it is the free concentration of one partner at which half of the binding sites on the other are occupied at equilibrium, for simple one-to-one binding. As for C1s proenzyme (human), the Kd in assay [1] came out at 270 nM; in assay [2], 170 nM.

Take GST-ErpB (natural protein): the figures for the Kd in assay [3], in assay [4] and in assay [5] were 41 nM, 3.4 nM and 6.7 nM, respectively.

Take GST-ErpQ (natural protein): the results for the Kd in assay [3], in assay [4] and in assay [5] were 11 nM, 3.8 nM and 4.7 nM, respectively.

In assay [1], “human C1 complex (C1qC1r2C1s2) (from UniProt P02745 23-245; P02746 28-253; P02747 29-245)” registered a Kd of 5.6 nM.
